Experimental data from article PMC12319226 (Frontiers in Bioinformatics, 2025).

Key:
Experiment in all cases: BLI
Conditions in all cases: both partners purified
[1] = target: T1, factor H binding protein variant 1.1 (Neisseria meningitidis serogroup B …, UniProt Q9JXV4)
T1 construct: also called fHbp v1.1; v1.1 Control (0001)

[2] = target: T2, fHbp m001497 (Neisseria meningitidis, fHbp …, point mutant)
T2 chain: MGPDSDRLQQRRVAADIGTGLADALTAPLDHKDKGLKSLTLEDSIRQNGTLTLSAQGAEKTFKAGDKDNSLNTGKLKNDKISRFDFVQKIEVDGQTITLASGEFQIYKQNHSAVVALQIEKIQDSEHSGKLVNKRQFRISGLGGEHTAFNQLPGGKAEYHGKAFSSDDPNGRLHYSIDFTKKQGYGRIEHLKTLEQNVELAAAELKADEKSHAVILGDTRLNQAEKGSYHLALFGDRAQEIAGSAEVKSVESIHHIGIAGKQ

[3] = target: T3, fHbp m001767 (Neisseria meningitidis fHbp v3.28, …, point mutant)
T3 chain: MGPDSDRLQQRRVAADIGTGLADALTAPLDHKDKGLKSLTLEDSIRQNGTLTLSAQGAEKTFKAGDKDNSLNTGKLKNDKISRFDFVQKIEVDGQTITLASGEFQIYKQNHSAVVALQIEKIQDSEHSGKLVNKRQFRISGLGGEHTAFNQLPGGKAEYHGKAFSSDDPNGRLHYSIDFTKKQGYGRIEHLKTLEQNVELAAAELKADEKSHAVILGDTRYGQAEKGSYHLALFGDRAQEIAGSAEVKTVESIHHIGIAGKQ

[4] = target: T4, fHbp m001820 (Neisseria meningitidis fHbp v3.28, …, point mutant)
T4 chain: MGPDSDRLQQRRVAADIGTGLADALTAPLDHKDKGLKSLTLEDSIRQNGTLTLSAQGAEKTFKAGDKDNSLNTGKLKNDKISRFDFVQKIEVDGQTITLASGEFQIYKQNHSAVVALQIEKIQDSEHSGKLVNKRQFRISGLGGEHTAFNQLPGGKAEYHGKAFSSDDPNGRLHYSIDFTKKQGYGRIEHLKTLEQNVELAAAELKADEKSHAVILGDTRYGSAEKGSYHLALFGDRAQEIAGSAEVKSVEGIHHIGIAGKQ

[5] = target: T5, fHbp m001832 (Neisseria meningitidis fHbp v3.28, …, chimera)
T5 chain: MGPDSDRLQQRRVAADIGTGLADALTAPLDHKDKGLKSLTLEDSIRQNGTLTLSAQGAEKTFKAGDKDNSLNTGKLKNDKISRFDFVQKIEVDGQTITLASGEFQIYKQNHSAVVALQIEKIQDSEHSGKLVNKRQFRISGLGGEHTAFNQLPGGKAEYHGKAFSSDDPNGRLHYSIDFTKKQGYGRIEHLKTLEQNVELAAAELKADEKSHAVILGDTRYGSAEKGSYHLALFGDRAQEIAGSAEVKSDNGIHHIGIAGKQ

[6] = target: T6, fHbp m001941 (Neisseria meningitidis fHbp v3.28, …, chimera)
T6 chain: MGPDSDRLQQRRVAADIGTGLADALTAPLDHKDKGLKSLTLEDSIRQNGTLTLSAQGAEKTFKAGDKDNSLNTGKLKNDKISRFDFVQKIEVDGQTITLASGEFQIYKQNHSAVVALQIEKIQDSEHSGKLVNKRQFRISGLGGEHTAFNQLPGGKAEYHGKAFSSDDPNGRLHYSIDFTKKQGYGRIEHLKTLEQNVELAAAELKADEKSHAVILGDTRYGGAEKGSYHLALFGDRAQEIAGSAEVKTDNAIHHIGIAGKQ

[7] = target: T7, fHbp m002334 (Neisseria meningitidis, engineered fHbp …, chimera)
T7 chain: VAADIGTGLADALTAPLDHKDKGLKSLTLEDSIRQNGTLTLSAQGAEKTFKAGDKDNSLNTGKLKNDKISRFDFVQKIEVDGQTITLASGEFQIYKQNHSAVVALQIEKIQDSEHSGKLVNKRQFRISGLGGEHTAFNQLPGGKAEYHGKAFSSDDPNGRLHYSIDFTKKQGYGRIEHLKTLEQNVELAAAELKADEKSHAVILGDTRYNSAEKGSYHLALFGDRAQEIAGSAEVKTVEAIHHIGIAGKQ

[8] = target: T8, fHbp m001529 (Neisseria meningitidis, fHbp …, point mutant)
T8 chain: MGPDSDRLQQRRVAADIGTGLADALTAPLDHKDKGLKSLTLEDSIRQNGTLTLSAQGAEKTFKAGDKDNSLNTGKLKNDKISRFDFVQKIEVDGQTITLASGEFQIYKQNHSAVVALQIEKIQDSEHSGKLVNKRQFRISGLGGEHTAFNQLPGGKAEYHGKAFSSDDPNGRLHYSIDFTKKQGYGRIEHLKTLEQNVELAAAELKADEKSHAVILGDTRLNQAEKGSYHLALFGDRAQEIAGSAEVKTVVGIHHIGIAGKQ

[9] = target: T9, fHbp m001608 (Neisseria meningitidis, fHbp …, point mutant)
T9 chain: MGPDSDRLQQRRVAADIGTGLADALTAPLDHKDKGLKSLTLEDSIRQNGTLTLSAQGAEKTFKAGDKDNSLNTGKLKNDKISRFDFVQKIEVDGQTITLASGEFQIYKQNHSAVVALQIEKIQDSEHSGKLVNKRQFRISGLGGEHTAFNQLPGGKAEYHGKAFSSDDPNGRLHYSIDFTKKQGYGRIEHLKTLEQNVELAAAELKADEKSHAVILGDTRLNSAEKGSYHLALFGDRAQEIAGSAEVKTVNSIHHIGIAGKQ

B1: chimeric antibody h12C1 (antibody, V domains shown)
VH: QVQLQESGPELVKPGASVKISCKASGYSFSDYNMSWVKQSNGKSLEWIGIIDPKYGTINYNQKFKGKATLTVDQASSTAYMQLNSLTSEDSAVYYCVRDYYGSSYFDYWGQGTTLTVSS
VL: DIVLTQSPSSIYASLGERVTLTCKASQDIHNYLNWFQQKPGKSPKTLIYRANRLVDGVPSRFSGGGSGQDYSLTISSLEFEDIGIYYCLQYDEFPPTFGGGTRLEIK
notes: also called humanized 12C1; source: Expi293, purified (MabSelect SuRe, SEC); copies: 2 + 2
[1]
  Kd: 0.391 nM
  koff: 0.000273 s⁻¹
  kon: 697400 ± 1920 M⁻¹ s⁻¹
[2]
  Kd: 3.06 nM
  koff: 0.000593 s⁻¹
  kon: 193000 ± 2790 M⁻¹ s⁻¹

B2: mAb 1E6 (human) (antibody, V domains shown)
VH: EVQLVQSGAEVKKPGSSVKVSCKASGGTVIDYPITWVRQAPGQGLEWVGGFVPLFRTSNYGQKFQGRVTITADKSTSTASMELNSLTSEDTAIYYCARGDTAMGPFDYWGQGTLVTVSS
VL: SYVLTQPPSLSVAPGKTATLTCGGNNIAGKTVHWYQQRPGQAPVLVISYDSDRPSGIPERFSGSNSANTATLTISRVEAGDEADYYCQVWDRNSDHWVFGGGTKLTVL
notes: source: Expi293, purified (MabSelect SuRe, SEC); copies: 2 + 2
[3]
  Kd: 0.131 nM
  koff: 4.68e-05 s⁻¹
  kon: 358200 ± 2140 M⁻¹ s⁻¹
[4]
  Kd: 0.531 nM
  koff: 0.000171 s⁻¹
  kon: 322300 ± 1430 M⁻¹ s⁻¹
[5]
  Kd: 0.435 nM
  koff: 0.00016 s⁻¹
  kon: 367800 ± 1240 M⁻¹ s⁻¹
[6]
  Kd: 0.464 nM
  koff: 0.00015 s⁻¹
  kon: 323000 ± 2300 M⁻¹ s⁻¹
[7]
  Kd: 0.844 nM
  koff: 0.000101 s⁻¹
  kon: 119300 ± 930 M⁻¹ s⁻¹
[2]
  Kd: 0.563 nM
  koff: 0.000176 s⁻¹
  kon: 311700 ± 2460 M⁻¹ s⁻¹
[8]
  Kd: 0.338 nM
  koff: 0.000156 s⁻¹
  kon: 460900 ± 3880 M⁻¹ s⁻¹
[9]
  Kd: 0.154 nM
  koff: 8.28e-05 s⁻¹
  kon: 537900 ± 1940 M⁻¹ s⁻¹
